{
  "source": "patent US20240083986A1",
  "about": "(published 2024)",
  "binders": {"B1": {"name": "H4H16987P (antibody, human IgG4 S228P, kappa, V domains shown)", "VH": "EVQLVESGGGLVQPGGSLRLSCAASGFTVSSNSMSWVRQAPGEGLEWVSVIFSGGITYYSDSVKGRFTISRHNSKNTLYLQMNSLRTEDTAVYYCARHSNWNFDAFDIWGQGTMVTVSS", "VL": "DIQMTQSPSSLSASVGDRVTITCRASQSFDTYLNWYQQKPGKAPNLLIYATSSLQSGVPSRFSGSGSGTDFTLTISSLQPEDFGTYYCQQSYSIPYTFGQGTKLEIKR", "notes": "fully human, human IgG4 Fc (H4H prefix); also called MAB4"}, "B2": {"name": "H4H16967P (antibody, human IgG4, V domains shown)", "VH": "QVQLVESGGGVVQPGRSLRLSCAASGFTFSSYGMHWFRQAPGKGLEWVGVIWSDGSDKKYADSVKGRFTISRDNSKNTLYLLMNSLRDDDTAVYHCAREGGFLYSSSSHFDYWGQGTLVTVSS", "VL": "AIQMTQSPSSLSASVGDRVTITCRTSQGIRNDLGWYQQKPGKAPKLLIFAASSLQSGVPSRFSGSGSGTDFTLTISSLQPEDFAIYYCLQDYKYPFTFGGGTKVEIK"}},
  "key": {"natural Bet v 1 [1]": {"target": "T1, natural Bet v 1 (Betula verrucosa (Betula pendula), UniProt P15494 2-160)", "T1 construct": "bought natural protein (Indoor Biotechnologies #NA-BV1-1); also called nBet v 1; Biotinylated Bet v 1", "T1 chain": "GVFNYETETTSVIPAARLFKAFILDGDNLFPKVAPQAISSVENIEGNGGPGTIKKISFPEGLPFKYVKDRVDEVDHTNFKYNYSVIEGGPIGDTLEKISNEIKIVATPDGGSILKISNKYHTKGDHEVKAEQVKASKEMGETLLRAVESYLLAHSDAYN", "assay": "dose-response blocking ELISA, biotin nBet v 1 to captured IgE, donor 25340-RR"}, "natural Bet v 1 [2]": {"target": "T1, natural Bet v 1", "assay": "dose-response blocking ELISA, biotin nBet v 1 to captured IgE, donor 25609-MS"}, "natural Bet v 1 [3]": {"target": "T1, natural Bet v 1", "assay": "blocking ELISA, biotin nBet v 1 to captured IgE, donor 23658-MD"}, "natural Bet v 1 [4]": {"target": "T1, natural Bet v 1", "assay": "blocking ELISA, biotin nBet v 1 to captured IgE, donor 22627-MN"}, "natural Bet v 1 [5]": {"target": "T1, natural Bet v 1", "assay": "blocking ELISA, biotin nBet v 1 to captured IgE, donor 25340-RR"}, "natural Bet v 1 [6]": {"target": "T1, natural Bet v 1", "assay": "blocking ELISA, biotin nBet v 1 to captured IgE, donor 25414-CW"}, "natural Bet v 1 [7]": {"target": "T1, natural Bet v 1", "assay": "blocking ELISA, biotin nBet v 1 to captured IgE, donor 26532-CC"}, "natural Bet v 1 [8]": {"target": "T1, natural Bet v 1", "assay": "blocking ELISA, biotin nBet v 1 to captured IgE, donor 25609-MS"}, "natural Bet v 1 [9]": {"target": "T1, natural Bet v 1", "assay": "blocking ELISA, biotin nBet v 1 to captured IgE, donor 23939-MH"}, "natural Bet v 1 [10]": {"target": "T1, natural Bet v 1", "assay": "dose-response blocking ELISA, biotin nBet v 1 to captured IgE, donor 23939-MH"}, "natural Bet v 1 [11]": {"target": "T1, natural Bet v 1", "assay": "blocking ELISA, biotin nBet v 1 to captured IgE, donor 25299-RJ"}, "natural Bet v 1 [12]": {"target": "T1, natural Bet v 1", "assay": "blocking ELISA, biotin nBet v 1 to captured IgE, donor 29718-MW"}, "natural Bet v 1 [13]": {"target": "T1, natural Bet v 1", "assay": "blocking ELISA, biotin nBet v 1 to captured IgE, donor 23035-BL"}, "mutant Bet v 1-MMH": {"target": "T2, mutant Bet v 1-MMH (Betula verrucosa (European white birch, …))", "T2 construct": "also called CHO produced recombinant Bet v 1 containing a S85A mutation with a C-terminal myc-myc hexahistidine tag", "T2 chain": "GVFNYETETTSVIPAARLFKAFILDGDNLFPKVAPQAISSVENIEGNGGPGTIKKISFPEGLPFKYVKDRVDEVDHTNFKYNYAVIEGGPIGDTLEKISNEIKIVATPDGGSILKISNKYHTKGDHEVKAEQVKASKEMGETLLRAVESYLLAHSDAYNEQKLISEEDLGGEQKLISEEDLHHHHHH", "assay": "SPR Biacore, 25C and 37C"}, "[14]": {"target": "T3, natural Bet v 1 (Indoor, Cat #NA-BV1-1) (Betula verrucosa (European white birch, …, UniProt P15494 2-160))", "T3 construct": "Bought natural protein purified from birch pollen; also called nBet v 1", "T3 sequence": "T1 chain with L62F", "assay": "SPR Biacore, mAb captured on anti-hFc, 37C;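 further: purified anti-Bet v 1 monoclonal antibodies, HBS-ET running buffer pH 7.4, rate constants from 1:1 model fit with mass transport limitation, KD and t½ calculated from kinetic constants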"}, "[15]": {"target": "T3, natural Bet v 1 (Indoor, Cat #NA-BV1-1)", "assay": "SPR Biacore, mAb captured on anti-hFc, 25C;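 further: rate constants from sensorgrams fitted to a 1:1 model with mass transport limitation, KD and t½ derived from kinetic constants, run in HBS-ET buffer at pH 7.4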"}, "[16]": {"target": "T4, Celery (Api g 1, MyBiosource, Cat #MBS1171376) (Celery, UniProt P49372 1-154, limits assumed)", "T4 construct": "Bought reagent", "T4 sequence (looked up)": "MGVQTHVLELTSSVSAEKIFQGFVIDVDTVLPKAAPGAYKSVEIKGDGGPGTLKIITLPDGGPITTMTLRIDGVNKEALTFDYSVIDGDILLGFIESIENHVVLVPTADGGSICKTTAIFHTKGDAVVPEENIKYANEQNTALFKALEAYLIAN", "assay": "SPR Biacore, 25C;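 further: binding of related allergens to purified monoclonal anti-Bet v 1 antibodies by surface plasmon resonance in HEPES-buffered saline pH 7.4, kinetics fitted to a 1:1 model with mass transport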"}, "[17]": {"target": "T5, European Hornbeam (Car b 1 isoform 2, MyBiosource, Cat #MBS1043940) (European Hornbeam, UniProt P38950 2-160, limits assumed)", "T5 construct": "Bought reagent", "T5 sequence (looked up)": "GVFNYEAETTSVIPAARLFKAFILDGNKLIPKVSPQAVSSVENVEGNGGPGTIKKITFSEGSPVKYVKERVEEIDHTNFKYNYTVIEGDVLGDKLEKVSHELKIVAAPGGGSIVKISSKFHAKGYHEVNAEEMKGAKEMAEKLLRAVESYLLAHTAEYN", "assay": "SPR Biacore, 25C"}, "[18]": {"target": "T6, Apple (Mal d 1, MyBiosource, Cat #MBS1224919) (Apple, UniProt P43211 2-159, limits assumed)", "T6 construct": "Bought reagent", "T6 sequence (looked up)": "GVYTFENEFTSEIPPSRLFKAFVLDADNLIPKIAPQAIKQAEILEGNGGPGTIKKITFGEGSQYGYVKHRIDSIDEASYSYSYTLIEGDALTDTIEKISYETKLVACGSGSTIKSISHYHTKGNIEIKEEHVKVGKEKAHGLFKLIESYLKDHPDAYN", "assay": "SPR Biacore, 25C"}, "[19]": {"target": "T7, European Hornbeam (Car b 1 isoform 1A & 1B, MyBiosource, Cat #MBS1200018) (European Hornbeam, UniProt P38949 2-160)", "T7 construct": "Bought reagent", "T7 sequence (looked up)": "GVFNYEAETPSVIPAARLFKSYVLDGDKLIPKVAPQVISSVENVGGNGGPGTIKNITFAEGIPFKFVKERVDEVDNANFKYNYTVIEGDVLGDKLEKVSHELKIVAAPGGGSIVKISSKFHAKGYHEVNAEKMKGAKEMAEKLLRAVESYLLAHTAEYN", "assay": "SPR Biacore, 25C"}, "[20]": {"target": "T8, Alder (Aln g 1, MyBiosource, Cat #MBS1041484) (Alder, UniProt P38948 2-160, limits assumed)", "T8 construct": "Bought reagent", "T8 sequence (looked up)": "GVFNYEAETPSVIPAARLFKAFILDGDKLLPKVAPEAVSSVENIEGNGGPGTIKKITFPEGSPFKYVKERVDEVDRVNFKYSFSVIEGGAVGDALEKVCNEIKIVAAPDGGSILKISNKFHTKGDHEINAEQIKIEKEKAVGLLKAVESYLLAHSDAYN", "assay": "SPR Biacore, 25C"}},
  "note": "Positions count from the first letter of the chain named. Names and notes keep the numbering of the source.",
  "data": [
    {"binder": "B1", "values": [
      {"measurement": "Percent Blocking (at 1 µg/mL each antibody)", "setting": "natural Bet v 1 [1]", "result": 11.1, "unit": "%"},
      {"measurement": "Percent Blocking (at 1 µg/mL each antibody)", "setting": "natural Bet v 1 [2]", "result": 21.6, "unit": "%"},
      {"measurement": "Percent Blocking (at 1 µg/mL each antibody)", "setting": "natural Bet v 1 [3]", "result": 27, "unit": "%"},
      {"measurement": "Percent Blocking (at 1 µg/mL each antibody)", "setting": "natural Bet v 1 [4]", "result": 12, "unit": "%"},
      {"measurement": "Percent Blocking (at 1 µg/mL each antibody)", "setting": "natural Bet v 1 [5]", "result": 15, "unit": "%"},
      {"measurement": "Percent Blocking (at 1 µg/mL each antibody)", "setting": "natural Bet v 1 [6]", "result": -4, "unit": "%"},
      {"measurement": "Percent Blocking (at 1 µg/mL each antibody)", "setting": "natural Bet v 1 [7]", "result": 4, "unit": "%"},
      {"measurement": "Percent Blocking (at 1 µg/mL each antibody)", "setting": "natural Bet v 1 [8]", "result": 16, "unit": "%"},
      {"measurement": "Percent Blocking (at 1 µg/mL each antibody)", "setting": "natural Bet v 1 [9]", "result": 16, "unit": "%"},
      {"measurement": "Percent Blocking (at 1 µg/mL each antibody)", "setting": "natural Bet v 1 [10]", "result": 19.6, "unit": "%"},
      {"measurement": "Percent Blocking (at 1 µg/mL each antibody)", "setting": "natural Bet v 1 [11]", "result": 9, "unit": "%"},
      {"measurement": "Percent Blocking (at 1 µg/mL each antibody)", "setting": "natural Bet v 1 [12]", "result": 13, "unit": "%"},
      {"measurement": "Percent Blocking (at 1 µg/mL each antibody)", "setting": "natural Bet v 1 [13]", "result": -46, "unit": "%"}
    ]},
    {"binder": "B2", "values": [
      {"measurement": "binding result", "setting": "mutant Bet v 1-MMH", "result": "no binding (tested: 100 nM)"},
      {"measurement": "100 nM natural Bet v 1 Bound (RU)", "setting": "[14]", "result": 45, "unit": "RU"},
      {"measurement": "Kd", "setting": "[14]", "result": 14.3, "unit": "nM"},
      {"measurement": "koff", "setting": "[14]", "result": 0.000719, "unit": "s⁻¹"},
      {"measurement": "kon", "setting": "[14]", "result": 50400, "unit": "M⁻¹ s⁻¹"},
      {"measurement": "t½", "setting": "[14]", "result": 16, "unit": "min"},
      {"measurement": "100 nM natural Bet v 1 Bound (RU)", "setting": "[15]", "result": 27, "unit": "RU"},
      {"measurement": "Kd", "setting": "[15]", "result": 3.98, "unit": "nM"},
      {"measurement": "koff", "setting": "[15]", "result": 0.000149, "unit": "s⁻¹"},
      {"measurement": "kon", "setting": "[15]", "result": 37600, "unit": "M⁻¹ s⁻¹"},
      {"measurement": "t½", "setting": "[15]", "result": 77, "unit": "min"},
      {"measurement": "binding result", "setting": "[16]", "result": "no binding (tested: 100 nM)"},
      {"measurement": "binding result", "setting": "[17]", "result": "no binding (tested: 100 nM)"},
      {"measurement": "binding result", "setting": "[18]", "result": "no binding (tested: 100 nM)"},
      {"measurement": "binding result", "setting": "[19]", "result": "no binding (tested: 100 nM)"},
      {"measurement": "binding result", "setting": "[20]", "result": "no binding (tested: 100 nM)"}
    ]}
  ]
}
